Target: SerRS (seryl-tRNA synthetase) wild type (Homo sapiens, UniProt P49591 SEQ:1-514)
Assay: EMSA; 20 mM Tris pH 8.0, 60 mM KCl, 5 mM MgCl2, poly(dG-dC), room temperature
Settings: tags: C-terminal His6; label: 5'-32P
Experimental: The 27 bp DNA oligonucleotides corresponding to SerRS binding site on the VEGFA promoter (5′ GGCGGGGCGGAGCCATGCGCCCCCCCC 3′ (SEQ ID NO: 36)) were synthesized, annealed, and [³²P]-labeled at the 5′ end by T4 DNA kinase (New England Biolabs, Ipswich, Mass., USA) before desalting using a sephadex G-25 spin column (GE Healthcare, Pittsburgh, Pa., USA). The labeled oligonucleotides (0.08 pmol) were incubated with recombinant SerRS at indicated concentrations in binding buffer (20 mM Tris-HCl, pH 8.0, 60 mM KCl, 5 mM MgCl₂, 0.1 mg ml⁻¹ BSA, 10 ng μl⁻¹ poly (dG-dC), 1 mM DTT) for 30 min at room temperature. The samples were loaded to 5% native polyacrylamide gel (17.5 cm in length) and underwent electrophoresis at 250 V in running buffer (25 mM Tris, pH 8.3, 190 mM glycine). Afterwards, the gel was dried and examined by autoradiography.
The effect of hypoxia on the interaction of SerRS with VEGFA promoter was also explored. As detected by electrophoresis mobility shift assay (EMSA), the direct binding between SerRS and a ³²P-labeled 27-bp DNA fragment previously identified as the SerRS binding site from the VEGFA promoter in Shi et al. 2014 was attenuated by the phosphor-mimicking mutant SerRS^{S101D/S241D} (FIG. 2E).

SerRS (seryl-tRNA synthetase) wild type, sequence (P49591 whole entry): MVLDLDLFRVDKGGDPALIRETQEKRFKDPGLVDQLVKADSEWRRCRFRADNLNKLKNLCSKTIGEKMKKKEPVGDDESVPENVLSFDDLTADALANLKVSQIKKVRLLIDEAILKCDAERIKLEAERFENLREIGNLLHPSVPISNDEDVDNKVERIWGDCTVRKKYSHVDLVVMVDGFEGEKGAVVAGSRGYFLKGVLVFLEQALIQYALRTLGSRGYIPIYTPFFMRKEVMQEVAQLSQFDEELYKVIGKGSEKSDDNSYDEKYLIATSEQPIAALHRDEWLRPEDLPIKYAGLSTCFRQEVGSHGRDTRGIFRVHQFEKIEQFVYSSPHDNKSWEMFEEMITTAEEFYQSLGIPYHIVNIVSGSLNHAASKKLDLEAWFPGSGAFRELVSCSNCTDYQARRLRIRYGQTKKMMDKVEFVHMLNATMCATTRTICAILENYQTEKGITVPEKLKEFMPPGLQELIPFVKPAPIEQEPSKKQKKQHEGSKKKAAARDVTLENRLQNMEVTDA

B1: VEGFA promoter 27-bp SerRS site (dsDNA)
DNA 1: GGCGGGGCGGAGCCATGCGCCCCCCCC
DNA 2: GGGGGGGGCGCATGGCTCCGCCCCGCC
B1: binds.

Reference: patent US20190167771, “CONTROL ANGIOGENESIS BY REGULATING PHOSPHORYLATION OF SERYL-tRNA SYNTHETASE (SerRS)” (The Scripps Research Institute, published 2019)
